Results on five molecules are retold here after US20260209325A1 (SCHOLAR ROCK, published 2026).

In assay [1] the target is recombinant human latent myostatin (human, UniProt O14793 24-375, biotinylated (in the Octet pH assay only)). Briefly: cell-based or functional assay.
Another assay concerns the target T1, murine pro-myostatin (mouse, UniProt O08689 25-376, biotinylated (in the SPR assay)).
T1 construct: also called proGDF8 (mouse); mouse pro-myostatin
The assay can be described thus: SPR Biacore 8K, biotin-antigen captured. (In general: Surface plasmon resonance follows binding to a sensor surface in real time, without labels.)

For assay [2], the target named is T2, human pro-myostatin (human, UniProt O14793 24-375, biotinylated (in the SPR assay)). The assay can be described thus: cell-based or functional assay.
The target of another assay is T3, cyno pro-myostatin (cynomolgus monkey, Biotinylated for capture in the SPR assay (site not stated). The native form is a disulfide-linked homodimer, partly furin-cleaved; one chain is given.).
T3 construct: also called proGDF8 (cynomolgus); cynomolgus monkey pro-myostatin
Briefly: SPR Biacore 8K, biotin-antigen captured.

Assay [3] concerns the target T2, human pro-myostatin. The assay can be described thus: SPR Biacore 8K, biotin-antigen captured.

In general, Kd refers to the concentration at which binding is half-saturated. What is called koff is the first-order rate constant of dissociation. The low end stands for a long-lived complex, the high end for a short-lived complex. One may read the kon as the rate constant with which the complex forms. The low end stands for slow association, the high end for fast association.

B1: Ab124 (antibody, human IgG4 S228P, kappa, V domains shown)
VH: QVQLQESGPGLVKPSQTLSLTCTVSGGSISSSPYSWSWIRQPPGKGLEWIGYVDLAGSTDYNPSLKSRVTMSVDTSKNQFSLKVNSVTAADTAVYYCARALSSRSSEWLLDQYTMDVWGQGTTVTVSS
VL: EIVMTQSPATLSLSPGERATLSCRASQSIGINLAWYQQKPGQAPRLLIYGVSNRATGIPARFSGSGSGTDFTLTISSLEPEDFAVYYCQQYGTARLTFGGGTKVEIKR
Consider B1, for which the “IC50 (nM) Latent + mTLL2” value in assay [1] was 1.43 nM. In the assay with murine pro-myostatin, this molecule had a Kd of 3.26 nM, a koff of 0.000454 s⁻¹ and a kon of 139000 M⁻¹ s⁻¹.

B2: Ab101 (antibody, human IgG4 S228P, kappa, V domains shown)
VH: EVQLVESGGGLVQPGGSLRLSCAASGSAFSSYGMSWVRQAPGKGLELVASINSNGGSTYYPDSVKGRFTISRDNAKNSLYLQMNSLRAEDTAVYYCARDLLVRFLEWSHYYGMDVWGQGTTVTVSS
VL: DIVMTQSPLSLPVTPGEPASISCRSSQSLLHSSGHNFLHWYLQKPGQSPQLLIYEVSNRVSGVPDRFSGSGSGTDFTLKISRVEAEDVGVYYCMQQTQYPPTFGGGTKVEIKR
For the molecule B2, the “IC50 (nM) Pro + Furin” value in the assay with human pro-myostatin [2] was 0.251 nM. The “IC50 (nM) Latent + mTLL2” value in assay [1] is 0.128 nM. In the assay with cyno pro-myostatin, this molecule registered a dissociation constant Kd of 0.065 nM, a koff of 0.000317 s⁻¹ and an on-rate (kon) of 4.84e+06 M⁻¹ s⁻¹. In the assay with murine pro-myostatin, this molecule came in with a dissociation constant Kd of 0.083 nM, an off-rate (koff) of 0.00036 s⁻¹ and a kon of 4.34e+06 M⁻¹ s⁻¹. In addition, in the assay with human pro-myostatin [3], the affinity, expressed as Kd, was 0.078 nM; the koff stood at 0.000339 s⁻¹; the on-rate (kon) stood at 4.37e+06 M⁻¹ s⁻¹.

B3: Ab107 (antibody, human IgG4 S228P, kappa, V domains shown)
VH: EVQLVESGGGLVQPGGSLRLSCAASGSAFSSYGMSWVRQAPGKGLELVASINSNGGSTYYPDSVKGRFTISRDNAKNSLYLQMNSLRAEDTAVYYCARDQLVRFLEWSHYYGMDVWGQGTTVTVSS
VL: DIVMTQSPLSLPVTPGEPASISCRSSQSLLHSSGHNFLHWYLQKPGQSPQLLIYAGSNRPSGVPDRFSGSGSGTDFTLKISRVEAEDVGVYYCAHATQLPHTFGGGTKVEIKR
B3: the “IC50 (nM) Pro + Furin” value with human pro-myostatin [2] turned out to be 0.195 nM. In addition, the “IC50 (nM) Latent + mTLL2” value in assay [1] is 0.135 nM. In the assay with cyno pro-myostatin, this molecule displayed a dissociation constant Kd of 0.054 nM, an off-rate constant (koff) of 0.000316 s⁻¹ and an on-rate (kon) of 5.85e+06 M⁻¹ s⁻¹. In the assay with murine pro-myostatin, binding was put at a Kd of 0.057 nM, the off-rate constant (koff) was determined as 0.000455 s⁻¹ and the on-rate constant (kon) came out at 8.04e+06 M⁻¹ s⁻¹. For the same molecule, in the assay with human pro-myostatin [3], binding was put at a Kd of 0.06 nM, the koff is 0.000319 s⁻¹ and the kon is 5.34e+06 M⁻¹ s⁻¹.

B4: Ab134 (antibody, human IgG4 S228P, kappa, V domains shown)
VH: EVQLVESGGGLVQPGGSLRLSCAASGSAFSSYGMSWVRQAPGKGLELVASINSNGGSTYYPDSVKGRFTISRDNAKNSLYLQMNSLRAEDTAVYYCARDLLVEFLKWSHYYGMDVWGQGTTVTVSS
VL: DIVMTQSPLSLPVTPGEPASISCRSSQSLLHSSGHNFLHWYLQKPGQSPQLLIYEVSNRVSGVPDRFSGSGSGTDFTLKISRVEAEDVGVYYCMQQTQYPPTFGGGTKVEIKR
B4: the “IC50 (nM) Latent + mTLL2” value in assay [1] is 0.631 nM.

B5: Ab103 (antibody, human IgG4 S228P, kappa, V domains shown)
VH: EVQLVESGGGLVQPGGSLRLSCAASGYTFSSYGMSWVRQAPGKGLELVASITGDAGRTYYPDSVKGRFTISRDNAKNSLYLQMNSLRAEDTAVYYCARDTLVRFLEWSHYYGMDVWGQGTTVTVSS
VL: DIVMTQSPLSLPVTPGEPASISCRSSQSLLHSSGHNFLHWYLQKPGQSPQLLIYEVSNRVSGVPDRFSGSGSGTDFTLKISRVEAEDVGVYYCMQQTQYPPTFGGGTKVEIKR
Consider B5, for which, in the assay with human pro-myostatin [2], the “IC50 (nM) Pro + Furin” value is 0.413 nM. In addition, in assay [1], the “IC50 (nM) Latent + mTLL2” value is 0.506 nM. In the assay with cyno pro-myostatin, this molecule showed a Kd of 0.252 nM, a dissociation rate constant (koff) of 0.00154 s⁻¹ and an association rate constant (kon) of 6.09e+06 M⁻¹ s⁻¹. Further, in the assay with murine pro-myostatin, the affinity, expressed as Kd, was 0.379 nM; the off-rate constant (koff) worked out at 0.00221 s⁻¹; the kon turned out to be 5.83e+06 M⁻¹ s⁻¹. In the assay with human pro-myostatin [3], this molecule registered a Kd of 0.261 nM, a koff of 0.00151 s⁻¹ and an on-rate (kon) of 5.78e+06 M⁻¹ s⁻¹.
